Laboratory results published in the supplement of paper PMC9732359.
± gives the uncertainty stated by the source.

Experiment: protein stability index of a GFP-peptide fusion (yeast GPS) (PSI 1-4); higher = more stable; sorted into four equal gates, so the index is relative within each strain
How it was run: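 Plasmids isolated from each sorting gate were PCR-amplified and Illumina-sequenced, and barcodes assigned the reads to strains. The gates, four of equal size, were set by GFP/Cherry fluorescence ratio on mid-log cultures in leucine-free medium. These cultures were yeast carrying a pooled library of tiled 17-residue yeast protein peptides fused downstream of GFP on a plasmid that also expresses Cherry. The protein stability index is the sum of every gate's read frequency times its gate number.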

Sequence	protein stability index (doa10∆)	protein stability index (pdr5∆)	protein stability index (san1∆)	protein stability index (ubr1∆)
PQKYVLHPQLHEVQYQE [SIN4]	1.49 ± 0.13	1.88 ± 0.082	2.15 ± 0.14	1.6 ± 0.064
TIDEQSQISPEKQTPNK [RPN1]	3.24 ± 0.17	3.57 ± 0.15	3.28 ± 0.12	3.22 ± 0.056
LPVMESLDSCTAAFTAM [YJR042W/NUP85]	2.65 ± 0.085	2.37 ± 0.066	2.54 ± 0.071	2.37 ± 0.071
NGGDKELEMIGGTNEDD [YCS4]	3.25 ± 0.22	2.79 ± 0.21	2.46 ± 0.22	3.05 ± 0.27
YKVENVTLYWNNAKLLT [ESC2]	1.71 ± 0.059	1.99 ± 0.051	1.71 ± 0.076	2.19 ± 0.043
SVKKAGASINSMKANTS [ARP7]	2.07 ± 0.052	2.46 ± 0.05	2.42 ± 0.054	2.25 ± 0.037
TLLPGLQDEVMNIKPVQ [RPS2]	1.21 ± 0.14	1.35 ± 0.13	1.18 ± 0.26	1.09 ± 0.14
RKVREQEELKKRQELEE [MED2]	1.86 ± 0.039	2.36 ± 0.048	1.96 ± 0.1	2.55 ± 0.033
FQFFPKELDALQEKEQL [ISW2]	2.79 ± 0.066	2.97 ± 0.074	3.04 ± 0.043	2.97 ± 0.06
ISQKLTNVNVKIKDVQQ [SMC3]	1.97 ± 0.12	2.34 ± 0.064	2.27 ± 0.14	2.32 ± 0.19
VGVNKDSYLILDTLPSE [RPT5]	3.15 ± 0.069	3.18 ± 0.08	3.19 ± 0.078	3.14 ± 0.032
IVVATEHNPSAHTASVG [COR1]	2.7 ± 0.07	2.46 ± 0.088	2.27 ± 0.06	1.77 ± 0.037
EGIKVVDIDDPDMMVDS [SNF2]	3 ± 0.17	3.14 ± 0.19	3.12 ± 0.094	2.97 ± 0.091
TNENGETDDNIETVMTQ [SRB4]	2.79 ± 0.099	2.53 ± 0.076	2.44 ± 0.089	2.5 ± 0.074
DPKSPTKRSIAIVFEEI [YMR129W/POM152]	2.73 ± 0.074	2.97 ± 0.087	2.77 ± 0.055	2.72 ± 0.078
EYGKHDFKNEESLSEEH [MED8]	3.3 ± 0.1	3 ± 0.081	3.1 ± 0.053	3.34 ± 0.054
KQNPGLMQNMMNMFGGG [SRP54]	2.05 ± 0.086	2.36 ± 0.049	2.37 ± 0.088	1.8 ± 0.042
TFIDKERHQKQLNEKLV [YCS4]	2.62 ± 0.13	2.6 ± 0.16	2.81 ± 0.078	2.65 ± 0.093
RFISDLLWLVLIHPENF [SWI1]	1.82 ± 0.081	1.28 ± 0.092	1.86 ± 0.2	2.59 ± 0.18
DQDRGAARHKQHEQGTF [RRI2]	3.21 ± 0.1	2.99 ± 0.23	–	–
DGTAKEVGDEADNTKDK [MED4]	3.06 ± 0.11	3.18 ± 0.12	3.34 ± 0.088	3.22 ± 0.077
ENGTLLVPPPRTIANQD [RPR2]	3.01 ± 0.054	3.05 ± 0.052	2.81 ± 0.05	2.99 ± 0.036

Sequence	protein stability index (doa10∆)	protein stability index (pdr5∆)	protein stability index (san1∆)	protein stability index (ubr1∆)
QQRGITYLNEVLEKDAA [YGR119C/NUP57]	3.16 ± 0.093	3.27 ± 0.079	3.33 ± 0.061	3.13 ± 0.09
KLEYPHTDVSSSLEARY [RPN3]	2.76 ± 0.066	3.01 ± 0.073	2.75 ± 0.077	2.9 ± 0.086
EMIDSHIKEASEEVDDL [SNF2]	–	2.81 ± 0.19	2.81 ± 0.094	3.09 ± 0.07
LSLMLESPNYCNALIHI [SRB4]	1.52 ± 0.044	1.78 ± 0.035	1.72 ± 0.075	1.75 ± 0.035
TTGSIFEKDLMAYFDEN [BRN1]	2.83 ± 0.055	3.15 ± 0.055	3.17 ± 0.043	3.13 ± 0.033
DSILNYAKSEFDNVASV [ECM29]	3.22 ± 0.11	3.14 ± 0.15	3.04 ± 0.087	3.15 ± 0.18
KLSESLDTRKELWRKEQ [SMC3]	1.29 ± 0.077	1.75 ± 0.1	3.19 ± 0.19	1.82 ± 0.12
DRCVDPEDPYFNTLVRI [DIS3]	3.39 ± 0.11	3.41 ± 0.11	3.48 ± 0.058	3.4 ± 0.048
PLLYNSLCTVWKPNPSY [SRB5]	1.99 ± 0.11	1.68 ± 0.062	2.21 ± 0.11	2.13 ± 0.1
HHWLLDKLSGCYAPRPS [RPS4A]	2.21 ± 0.063	1.94 ± 0.062	1.89 ± 0.083	1.42 ± 0.045
IADELMKLDDSSKTRNV [ITC1]	2.61 ± 0.072	2.09 ± 0.12	2.69 ± 0.072	2.78 ± 0.08
ASLGIGLAAMGSANIEV [RPN2]	1.65 ± 0.088	1.76 ± 0.079	1.74 ± 0.091	1.53 ± 0.067
KVEYKIVHDDPASDDIL [ITC1]	3.05 ± 0.087	3.09 ± 0.086	3.05 ± 0.17	3.21 ± 0.091
FQETLDSTVVYPLPKFP [MED8]	3.05 ± 0.05	3.19 ± 0.044	2.95 ± 0.042	3.15 ± 0.044
IDGKTVSYKDYSIFLEN [SMC1]	2.72 ± 0.062	3.07 ± 0.057	2.85 ± 0.061	2.89 ± 0.046
FKQKLNELLKCKDDVQL [MTW1]	2.93 ± 0.054	2.96 ± 0.049	2.87 ± 0.036	3 ± 0.039
KPLGTTRAMEYLKFREL [RPB2]	2.49 ± 0.065	2.86 ± 0.077	3.13 ± 0.068	2.9 ± 0.056
DATNTSYKMIQLDAYGE [SWP82]	3.29 ± 0.087	3.39 ± 0.077	3.25 ± 0.057	3.16 ± 0.05
PGHEMEDFLDKSYYLNT [AAR2]	3.29 ± 0.07	3.1 ± 0.076	2.81 ± 0.065	3.11 ± 0.04
GVSISVSFNSKQNEQLH [SMC3]	1.87 ± 0.064	2.01 ± 0.065	2.7 ± 0.13	2.35 ± 0.11
DVTAIQTWSYLSLYSTD [ECM29]	1.52 ± 0.038	1.91 ± 0.036	1.9 ± 0.055	1.92 ± 0.036
CLNTQRGDSTETSSFGS [RRI1]	3.61 ± 0.14	3.25 ± 0.17	3.37 ± 0.084	3.56 ± 0.17
